The subject of one assay is human Tau fused with GFP. The assay is described as follows: Flow cytometry of Tau-GFP over DsRed in DAOY cells transfected with Numb isoforms. It is filed as cell-based. The note with it: three days after transfection, compared to controls (Myc-Tag). The source says: FIGS. 6A-I: Isoform Numb-72 interacts with Tau and regulates Tau level. FIG. 6A. Schematic of 4 Numb isoforms, differing with the presence or the absence of an insertion (arrowhead) in PTB domain arrowhead, and the presence or the absence of an insertion in the proline-rich region (PRR). FIG. 6B. Coimmunoprecipitation of Tau and 4 isoforms of Numb in HEK293 cells. Each Numb isoform was transfected in HEK293T cells together with a flag-tagged version of Tau and immunoprecipitation was perform 24 hours later with a flag antibody and blotted for Numb. […] FIG. 6C. Detection of Tau::GFP level in presence of 4 isoforms of Numb by western blot in HEK293. All the Numb isoforms were transfected with a Tau::GFP fusion protein in HEK293T cells and the levels of Tau::GFP was analysed by western blot 48 hours after transfection. FIG. 6D. […] DsRed-IRES-Tau::EGFP expressing cells were used to assess the abundance of Tau by monitoring the Tau-GFP to DsRed fluorescence ratio. […] FIGS. 6F-J. Fluorescence-activated cell sorting (FACs) analysis of the 4 Numb isoforms affected 3 days after transfection on ratio DsRed versus DsRed and GFP-positives cells compared to the control (Myc-Tag). FIG. 6K Quantification represents fold change for 5 experiments, +/− SEM, **p≤0.001; n.s. non-significant Anova 1-way test. […]

The test system of assay [1] is primary RGC neuron cultures. The assay is described as follows: Axonal blebs, neurite length and branching in transfected primary RGC neuron cultures of AD and tauopathy mice. It is filed as cell-based, mouse. Particulars: for number of axonal blebs: plasmid transfection, two weeks later, vs GFP. Here is the method: FIGS. 10A-H: Numb72 reduces blebbing in AD mouse model RGCs. FIG. 10A. Primary retinal cultures were performed at P8 and cells were transfected using an Amaxa™ electroporator and analysed 14 days later. Cells GFP and NF165 positive were analysed in B6129J mouse line (Control) and triple transgenic mice (3×TGAD) expressing three mutations associated with familial Alzheimer's disease (APP Swedish, MAPT P301L, and PSEN1 M146V) after transfection of GFP or Numb-72 IRES::GFP. […] FIGS. 10B-D. Quantification of relative number of axonal blebs (FIG. 10B); axon (neurites) length (FIG. 10C) and branching number (FIG. 10D) in Control (B6129J) and 3×TGAD RGC axons was performed. Control numbers were normalized to 1. Error bars represent SEM, ** p≤0.001; n.s. non-significant; Anova 2 way for blebs and Student's t test for length and branching. FIG. 10E Primary retinal culture was performed at P8 and cells were transfected using an Amaxa™ electroporator and analysed 14 days later. Cells GFP and NF165 positive were analysed in C57b6 mouse line (Control) and P301S Tau mutant (TauP301S) (model of tauopathy) after transfection of GFP or Numb-72 IRES::GFP. […] FIGS. 10F-H. Quantification of relative number of axonal blebs (FIG. 10F); axon (neurites) length (FIG. 10G) and branching number (FIG. 7H) in Control (C57b6) (Control, FIGS. 10F-H) and TauP301S (FIGS. 10F-H) RGC axons was performed. Control numbers were normalized to 1. Error bars represent SEM, * p≤0.05; n.s. non-significant Anova 2 way for blebs and Student's t test for length and branching.
Retinal tissues were isolated from eyeballs of postnatal day 7 (P7) mice, cut in small pieces and incubated in PBS containing 5 mg/ml of papain, 0.24 mg/ml of L-cysteine, 0.5 mmol/l of EDTA, and 10 U/ml of DNase I for 2×3 min. The reaction was stopped by adding Lo-Ovo solution in PBS, and 10 U/ml of DNase I. The retinal cells were mechanically dissociated by gentle pipetting and collected as a suspension. Procedures were conducted at room temperature in a laminar flow hood. After centrifugation at 1000 rpm for 11 min, cells were resuspended in RGCs media and plate on glass coverslips at 50′000 cells/coverslips on a 24 wells plate and incubated at 37° C.; 8% CO2 for 2 weeks, half media was changed every 3 days. […]
To determine the neuroprotective effects of Numb-72, the inventors prepared primary RGC neuron cultures from control mice, triple transgenic mice (3×TGAD) expressing three mutations associated with familial Alzheimer's disease (APP Swedish, MAPT P301L, and PSEN1 M146V), or a P301S Tau mutant (model of tauopathy), and then expressed GFP or Numb-72 in these neurons by plasmid transfection. Two weeks later, the length of neurites, the number of branches, and the number of axonal blebs were counted.

[2] abbreviates: control, 3xTGAD and P301S RGC neurons, two weeks after transfection.

B1: Numb-72: 72 kDa Numb isoform with long PTB domain and long PRR; human isoform 1 (SEQ ID NO: 1); expressed by transfection (protein)
chain: MNKLRQSFRRKKDVYVPEASRPHQWQTDEEGVRTGKCSFPVKYLGHVEVDESRGMHICEDAVKRLKAERKFFKGFFGKTGKKAVKAVLWVSADGLRVVDEKTKDLIVDQTIEKVSFCAPDRNFDRAFSYICRDGTTRRWICHCFMAVKDTGERLSHAVGCAFAACLERKQKREKECGVTATFDASRTTFTREGSFRVTTATEQAEREEIMKQMQDAKKAETDKIVVGSSVAPGNTAPSPSSPTSPTSDATTSLEMNNPHAIPRRHAPIEQLARQGSFRGFPALSQKMSPFKRQLSLRINELPSTMQRKTDFPIKNAVPEVEGEAESISSLCSQITNAFSTPEDPFSSAPMTKPVTVVAPQSPTFQANGTDSAFHVLAKPAHTALAPVAMPVRETNPWAHAPDAANKEIAATCSGTEWGQSSGAASPGLFQAGHRRTPSEADRWLEEVSKSVRAQQPQASAAPLQPVLQPPPPTAISQPASPFQGNAFLTSQPVPVGVVPALQPAFVPAQSYPVANGMPYPAPNVPVVGITPSQMVANVFGTAGHPQAAHPHQSPSLVRQQTFPHYEASSATTSPFFKPPAQHLNGSAAFNGVDDGRLASADRHTEVPTGTCPVDPFEAQWAALENKSKQRTNPSPTNPFSSDLQKTFEIEL
modifications: homo sapiens
notes: 72 kDa Numb isoform with long PTB domain and long PRR; expressed by transfection
Take B1: in the assay with human Tau fused with GFP, the “proportion of cells with low levels of Tau-GFP (Tau-GFP over DsRed)” value was “increased the proportion of cells with low levels of Tau-GFP”. In addition, the “number of axonal blebs” value in assay [1] (3xTGAD RGC neurons) is on record as “reduced back to control levels”. For the same molecule, the “number of axonal blebs” value in assay [1] (P301S Tau mutant RGC neurons) is given as “reduced back to control levels”. Also, in assay [1] (setting [2]), the neurite length entry is “not changed in any condition” and the number of branches result is “not changed in any condition”.

Source of the values: patent publication US12186353B2, “Method of reducing neuronal microtubule binding protein Tau (Tau) levels” (ADAERATA, LIMITED PARTNERSHIP, priority 2018, dated 2025).
